Key:
[1] = target: T1, DDX21 helicase core (D1D2, DDX21-delNC) (human, UniProt Q9NR30 188-563); test: crystal structure; AMPPNP, Mg2+; 2.24 A, 7 nt visible; MST: 50 mM Tris pH 7.5, 50 mM KCl, 2 mM MgCl2, 1 mM TCEP, 0.01% NP-40, 0.05 mg/mL BSA, 2 mM AMPPNP, 50 nM FAM-RNA; temperature not given; crosslinking buffer not in material; conditions: protein: recombinant; tags: N-terminal His-SUMO, removed by ULP1; single strand
T1 sequence: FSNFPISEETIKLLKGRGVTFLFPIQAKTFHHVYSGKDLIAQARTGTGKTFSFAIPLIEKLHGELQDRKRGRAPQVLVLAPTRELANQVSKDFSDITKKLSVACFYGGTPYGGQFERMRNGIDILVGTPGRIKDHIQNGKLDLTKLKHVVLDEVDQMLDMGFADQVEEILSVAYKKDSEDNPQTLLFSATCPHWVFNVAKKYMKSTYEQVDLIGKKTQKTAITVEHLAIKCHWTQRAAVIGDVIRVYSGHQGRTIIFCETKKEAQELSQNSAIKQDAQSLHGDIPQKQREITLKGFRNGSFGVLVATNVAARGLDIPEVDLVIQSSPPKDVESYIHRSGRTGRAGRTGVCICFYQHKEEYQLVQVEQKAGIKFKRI

DDX21 full-length = target: T2, DDX21 full-length (human, UniProt Q9NR30 1-783); test: UV crosslinking/MST/SEC (method for this pair not specified); MST: 50 mM Tris pH 7.5, 50 mM KCl, 2 mM MgCl2, 1 mM TCEP, 0.01% NP-40, 0.05 mg/mL BSA, 2 mM AMPPNP, 50 nM FAM-RNA; temperature not given; crosslinking buffer not in material; conditions: protein: recombinant; tags: N-terminal His-SUMO, removed by ULP1; chain copies: 3; single strand
T2 sequence: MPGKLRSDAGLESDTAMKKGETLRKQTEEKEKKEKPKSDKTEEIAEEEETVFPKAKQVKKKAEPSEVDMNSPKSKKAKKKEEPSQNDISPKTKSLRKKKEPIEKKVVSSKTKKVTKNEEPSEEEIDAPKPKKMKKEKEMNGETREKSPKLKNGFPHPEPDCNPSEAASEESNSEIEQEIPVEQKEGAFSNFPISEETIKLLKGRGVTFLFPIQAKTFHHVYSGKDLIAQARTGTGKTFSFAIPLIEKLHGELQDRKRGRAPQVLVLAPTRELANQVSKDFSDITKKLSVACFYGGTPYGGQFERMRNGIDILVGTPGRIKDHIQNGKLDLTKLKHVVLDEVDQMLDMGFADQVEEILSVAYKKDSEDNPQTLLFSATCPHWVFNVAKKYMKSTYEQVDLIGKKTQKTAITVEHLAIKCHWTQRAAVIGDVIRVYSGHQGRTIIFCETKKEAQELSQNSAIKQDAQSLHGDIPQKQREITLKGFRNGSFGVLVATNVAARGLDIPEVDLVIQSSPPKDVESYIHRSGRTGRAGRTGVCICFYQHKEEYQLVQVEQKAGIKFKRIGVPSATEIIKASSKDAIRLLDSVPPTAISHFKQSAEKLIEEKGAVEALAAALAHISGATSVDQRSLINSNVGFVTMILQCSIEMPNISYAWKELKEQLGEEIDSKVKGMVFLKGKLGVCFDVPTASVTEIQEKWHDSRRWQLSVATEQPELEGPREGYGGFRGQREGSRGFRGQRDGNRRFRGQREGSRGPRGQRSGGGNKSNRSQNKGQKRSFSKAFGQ

[2] = target: the molecule itself; test: SEC; gel filtration of DDX21 del-C (1-710) and del-NC (188-710), data not shown; final SEC buffer of del-C with 200 mM NaCl
[3] = target: the molecule itself; test: SAXS; beamline BL19U2, 1-3 mg/mL protein; 20 mM Tris-HCl pH 7.5, 1 mM TCEP, 100 mM NaCl for DDX21 (188-563), 500 mM NaCl for DDX21 (1-783); ab initio envelopes (GASBOR)

UUUUUUUUUUUUUUU (ssRNA) [U15]
binding result [1]: binds | binding result (DDX21 full-length): binds

B1: DDX21 del-NC (188-710) (domain or fragment, human, UniProt Q9NR30-1 188-710, looked up)
chain: FSNFPISEETIKLLKGRGVTFLFPIQAKTFHHVYSGKDLIAQARTGTGKTFSFAIPLIEKLHGELQDRKRGRAPQVLVLAPTRELANQVSKDFSDITKKLSVACFYGGTPYGGQFERMRNGIDILVGTPGRIKDHIQNGKLDLTKLKHVVLDEVDQMLDMGFADQVEEILSVAYKKDSEDNPQTLLFSATCPHWVFNVAKKYMKSTYEQVDLIGKKTQKTAITVEHLAIKCHWTQRAAVIGDVIRVYSGHQGRTIIFCETKKEAQELSQNSAIKQDAQSLHGDIPQKQREITLKGFRNGSFGVLVATNVAARGLDIPEVDLVIQSSPPKDVESYIHRSGRTGRAGRTGVCICFYQHKEEYQLVQVEQKAGIKFKRIGVPSATEIIKASSKDAIRLLDSVPPTAISHFKQSAEKLIEEKGAVEALAAALAHISGATSVDQRSLINSNVGFVTMILQCSIEMPNISYAWKELKEQLGEEIDSKVKGMVFLKGKLGVCFDVPTASVTEIQEKWHDSRRWQLSVATE
notes: human DDX21, residues 188-710
stoichiometry N [2]: 2

B2: DDX21 del-C (1-710) (domain or fragment, human, UniProt Q9NR30-1 1-710, looked up)
chain: MPGKLRSDAGLESDTAMKKGETLRKQTEEKEKKEKPKSDKTEEIAEEEETVFPKAKQVKKKAEPSEVDMNSPKSKKAKKKEEPSQNDISPKTKSLRKKKEPIEKKVVSSKTKKVTKNEEPSEEEIDAPKPKKMKKEKEMNGETREKSPKLKNGFPHPEPDCNPSEAASEESNSEIEQEIPVEQKEGAFSNFPISEETIKLLKGRGVTFLFPIQAKTFHHVYSGKDLIAQARTGTGKTFSFAIPLIEKLHGELQDRKRGRAPQVLVLAPTRELANQVSKDFSDITKKLSVACFYGGTPYGGQFERMRNGIDILVGTPGRIKDHIQNGKLDLTKLKHVVLDEVDQMLDMGFADQVEEILSVAYKKDSEDNPQTLLFSATCPHWVFNVAKKYMKSTYEQVDLIGKKTQKTAITVEHLAIKCHWTQRAAVIGDVIRVYSGHQGRTIIFCETKKEAQELSQNSAIKQDAQSLHGDIPQKQREITLKGFRNGSFGVLVATNVAARGLDIPEVDLVIQSSPPKDVESYIHRSGRTGRAGRTGVCICFYQHKEEYQLVQVEQKAGIKFKRIGVPSATEIIKASSKDAIRLLDSVPPTAISHFKQSAEKLIEEKGAVEALAAALAHISGATSVDQRSLINSNVGFVTMILQCSIEMPNISYAWKELKEQLGEEIDSKVKGMVFLKGKLGVCFDVPTASVTEIQEKWHDSRRWQLSVATE
notes: human DDX21, residues 1-710; source: E. coli BL21-CodonPlus (DE3)-RIL, purified (Ni-NTA, ULP1 cleavage, Ni-NTA, Superdex 200); not shown: His-sumo, N-terminal, cleaved
stoichiometry N [2]: 5

B3: full-length DDX21 (1-783) (enzyme, human, UniProt Q9NR30-1 1-783, looked up)
chain: T2 sequence
notes: human DDX21, residues 1-783, codon-optimised synthetic gene; The text says it might be a trimer (SAXS, gel filtration); also called WT DDX21; RNA helicase DDX21; source: E. coli BL21-CodonPlus (DE3)-RIL, purified (Ni-NTA, ULP1 cleavage, Ni-NTA, Superdex 200); not shown: His-sumo, N-terminal, cleaved
stoichiometry N [3]: 3
